This note sets out measurements from the DeepSol protein solubility set.

A short description of this series: soluble on expression in E. coli; label from the status in PepcDB or PDB records.
“MKIAIAGAGAMGSRLGIMLHQGGNDVTLIDQWPAHIEAIRKNGLIADFNGEEVVANLPIFSPEEIDHQNEQVDLIIALTKAQQLDAMFKAIQPMITEKTYVLCLLNGLGHEDVLEKYVPKENILVGITMWTAGLEGPGRVKLLGDGEIELENIDPSGKKFALEVVDVFQKAGLNPSYSSNVRYSIWRKACVNGTLNGLCTILDCNIAEFGALPVSESLVKTLISEFAAVAEKEAIYLDQAEVYTHIVQTYDPNGIGLHYPSMYQDLIKNHRLTEIDYINGAVWRKGQKYNVATPFCAMLTQLVHGKEELLGAK”: the “soluble on expression in E. coli” value was “soluble”.

“MYRNLLNWLTILLVFPSCSGTSPTISVVCEENNVGNAIIKWETAPILKGQVKVYASTSPDFIPEENPVVTINIAKGKKTIVTNDPSQRYYYLMVFNNRYRVRVAARNVNIPGIQNFRDLGGYKSAETGKDTRWGMLYRSAQIDSIPFCSRRELKNMGIRTIIDLRSEEERHNYPQLHDEDFNVLHLPIATGNMEHILQDIRDKKIETDTIYRLVERMNRQLVTNYRKEYKELFTLLLDRNNYPVVIHCTSGKGRTGIVSALVLAALGVNEEAIMKDYRLSNDYFNIPKASRYAYKLPINSQEAITTIYSAKEDFLNAAKEQIDAEYGSVQAYLKKGIGLSAEEIERLRSILLIDNGLEHHHHHH”: the “soluble on expression in E. coli” value is listed as “not soluble”.

In the case of “MGSDKIHHHHHHMPTLLMITPENSEINKFKAHQLNNFTQLTMPYLAGFVPEEYSIRLLDEYTEPILFEKVDLVAITVNTPNAPHVYSVSKRFRELGAWVALGGPHVTLNPEEAACHGDTIFVGEAEETWPEFLKDFLSGNMQKVYTSLQVPSLDGLPIPRRDLIVGHRFTSGAVFASRGCPHHCSYCSLKKIYHNKLRTRPVDEVIKDIGSMPNKYFVFWDDNFFADPVYTKALLKELARLNKRWAAQVTAYSCEDEELLSLAKSAGCLYLFLGLESFSEQGLRDANKNFNKIEEYGKVVNKLHRHGISIQAGIVFGFDSDTLDVFETTLKACNKIGVDGVTASILTPFPGTSIYEQYKKEGRLLDVDWDHYNGKTRVAYVPKRMNCKELLNGYNEFRGKFHSWRSIVKRISKSRVNIFYSLAMNYGYKRAYRNFTRLGIGERSDESLGQRMEQHLRNWPR”, the “soluble on expression in E. coli” value was “not soluble”.

With “MSRFQTLTPASLSREAFIEAFADIYEHSPWVAEKAYDLGIDDSLNDIEGLHQRMADILLSASREAQLALINAHPDLAGKAAIRGELTASSTSEQAGAGIHECSAEEFARFTELNDAYKARFGFPFIKAVKGSNRHQILAAFEERIQHSADEEFATALAEINKIALFRLQQLLEHHHHHH”, the “soluble on expression in E. coli” value was “soluble”.

In the case of “GAADPVVVPANMEPLTIEGNRFVTLCIMIRTTPWEVSRDVKLHPRDEVDWHTLEGVRALREAFATNNPNGRLTWGFTMNALEDGRKNYREIRDYVVECQKKYGDEVTYFPGYFPAMYLPRERVNREMSEAIEIISKMVGNGYRPQSIMGGFLSADNLRYLAEKENIHVAHAVIWSQHNIDGGGADGSPSYPFYPSTEHFCKPAQGKSDFIDCVNLDGWTMDFICARRSGQTGHGIDGYNSRRGVGPIETYKGWGLDLGHREVMHTEAIHFDKGLELNGFGWVANIWEAQMVHEFGKDLICDAMKMWVTGTKERWPDTHFVTFGEFGELWRKQYKSNDDWNYRFVERGSGLGDSYNNLEIKWFMNKEFRLALLRDWHTKNSPAYVIDFTRYDLQAHEPADPSPEKPAKDWSLINKINQKALRPQDKPVLIDKLEKEDQDLIRKYYPELLK”, the “soluble on expression in E. coli” value was “soluble”.

For the sequence “MAHHHHHHMDPGAVMPGIVQMSKDNFDQLVGKEKAVLVEFYAPWCGHCKSMAPEYAALGAAYEASTNAKDLLLVGKVDATQDSDLGKRFGVTGFPTILYFAPGSLEPEKYKGGRTAEDFAKYLSSAIAGLRLTIPIEPQFAMELVHTNFDAVVKDPSKAVLVMFYAPWCGHCKALKPIYNTLAKVFSNDKDVVIARINADDAANRKIATEYAVAGFPTVYFFPKGADEKPVEYKNGRNLEDFLTFVNENAGKHRLANGDFSWECGVIAELAEAVALVATSSGESSKAAVEAVKAAAAKLAESEDAAYYIKAAERIAAKGPAYVESESARLKRTLGGSVAGDRRDNMVRRLNILTSIQKHMK”, the “soluble on expression in E. coli” value is given as “not soluble”.

In the case of “MLERIKSGVIGLDEILGGGFIKNTVNAVVGGMGCGKTIFCMNYLLEGLENGEKCMYASPDLDVDEFLRLAESMHWDFSKYIDNGQLNIMTVVAEDAASFIKMAFEYDRVAVDALSPLVIDVEAGSRKEIGWLLKNLKSKGTALITVEEPLRQNADLLLLLADSVISLRYTGYGGPFSRTLRVLKHRMSWHGDGVYPFYIIEGAGIVIDEKRGEGFELEEEMNLPERAKEKIAEMCKKGTLTLEDISKIKRRIP”, the “soluble on expression in E. coli” value is “not soluble”.

Take “MSLAAGKHTKHSNRVRIIGGQCRGRKLSFTSADGLRPTPDSVREKLFNWLGQDLTGKTVLDLFGGSGALGIEAASRNAKRVLISDNNRQTVQTLQKNSRELGLGQVQIVFSDGIAYLKTVSEQFDVVFLDPPFAWQDWQILFDALKPCLNPRAFVYLEAGTLPNIPDWLTEYREGKSGQSTFELRVFQVAEEGHHHHHH”: the “soluble on expression in E. coli” value is “soluble”.

Consider “MELIRFSISIPSKLLEKFDQIIEEIGYENRSEAIRDLIRDFIIRHEWEVGNEEVAGTITIVYNHDEGDVVKALLDLQHEYLDEIISSLHVHMDEHNCLEVIVVKGEAKKIKMIADKLLSLKGVKHGKLVMTSTGKELV”, for which the “soluble on expression in E. coli” value was “soluble”.

Turning to “KGTLYVVGTPIGNLRDITLRALEILSAVDCIAAEHIQHAQKLLAGHALHTTSTRIMPLHQHNEGSAVEKIIELLGSGKSVALISDAGTPAISDPGALLVQQVLARSLPVVPIPGA”, the “soluble on expression in E. coli” value was “not soluble”.

With “GPGSMTVLRRMRLTFVGTGVSSAVPVIGHLTTDCACRDAIANPSGPNRRNNVSLLISLPFAEGKSGVEWHHVLIDCGKTFRSAYMRVLAPMRVQYVDALLITHGHADAMHCVEELCGMQAEAAARYAQSVSPSSLPSSAGRTLASAVVPRTLRRVPTFLTAPTLDQIAMVSPELVTQSFHIGAAPTTGTAYHSALAATADMTARSSSSAEVLSTVMDIFYMDDTKPQRMHVPFGPLSLAASAARGVNATDAASDLPFYSFPVEHGKGYISMAWVFGRGTAFKSRQTQQQQQGSCVVYISDVSHIPATSMAFLQDLVKIDVLVLDLLAEHGAPSASHYCADEAIPLVVALAPRRTYFVGMFCSLEHHRTNEAFARELAELKMRYRDELEVVVPGSSAPAVTDTDREKKLAFVNRVCSMELAYDGQELDMDA”, the “soluble on expression in E. coli” value was “not soluble”.

For “MMQIRPVSDLRNKFSEIENIIISNKSPVFLTKNGHGSMVLMSLDMYESLTDNVENRLDEADFQAASTNVRLSHKDVFSDIRSKI”, the “soluble on expression in E. coli” value is “not soluble”.

In the case of “RGRGAAAWRILRCRRLPEPSPFLTQPNLAQSQPPAPVPVTDPSVTMHPAVFLSLPDLRCSLLLLVTWVFTPVTTEITSLDTENIDEILNNADVALVNFYADWCRFSQMLHPIFEEASDVIKEEFPNENQVVFARVDCDQHSDIAQRYRISKYPTLKLFRNGMMMKREYRGQRSVKALADYIRQQKSDPIQEIRDLAEITTLDRSKRNIIGYFEQKDSDNYRVFERVANILHDDCAFLSAFGDVSKPERYSGDNIIYKPPGHSAPDMVYLGAMTNFDVTYNWIQDKCVPLVREITFENGEELTEEGLPFLILFHMKEDTESLEIFQNEVARQLISEKGTINFLHADCDKFRHPLLHIQKTPADCPVIAIDSFRHMYVFGDFKDVLIPGKLKQFVFDLHSGKLHREFHHGPDPTDTAPGEQAQDVASSPPESSFQKLAPSEYRYTLLRDRDEL”, the “soluble on expression in E. coli” value is reported as “soluble”.

As for “MGSSHHHHHHSSGLVPRGSHMRIAIVVPYLAKVEGNKIALILASKLAKNNEVFVVSYAVKDSIIDEVNSLISPAKFFYQKAISNGRYGIRFAIKYQLLKGVDRKMANLLKALMPLDIYLVISNEGHWIPIYFDKAYGTKSALVVMELHDHGFISAGNDPLRFPILRTVLASPAYGLAKVIEYKRFKSFDILFANSKWTQIVFQYLYGLPVSGILFGIDTEVFKPTPSKFSEMNFIAVPTISLKKDYYGRRLISKLAKDGIPLLSYGPIKIEGVKHLGYLSQDEMVKILSAAKATLFLFNYEALGLIPFESLACGTPVITYPKQGPLVELSDNPNVIYFREYEELLKNCRLHLNSAKDEMTINKCRESVLKYDISKVSVDVEQLFQTIIFNKNKS”, the “soluble on expression in E. coli” value is “soluble”.

For the sequence “MKRIARLLLSCICLALLSGCLYPQERLKQNQIPYKDQVAAVQSAVDEYRKATGGLLPIKTRDMNTPMYLKYPVDFQKLVPRYMQEPPGNAYESGGVFQYMIIDAETNPTVKLLDLRLAERIRDLKLRLSMYTDKHKYPPFQDVVAPGVFTLDYKKLGYKEPPYVVSPFSGNNLPFVIDGNGEIYIDYRSDLYAALKKYPHHYKPGDDIRPILTDHSLFVPAYSLPYTIDAKTNEPIFFTK”, the “soluble on expression in E. coli” value is on record as “not soluble”.

Regarding “PIGKATDNMYSYLALLQDDPTIQIVNQAQKAYVEKVAPSIAAMAGLPILSAGAPFKAGGRKNDPTGYTEVNKGKLTFRNAADLYLYPNTLVVVKATGEQLKEWLECSAGMFKQIDPTSDKPQSLIDWEGFRTYNFDVIDGVNYEYDLTKPARYDGECKLINPESHRVVNLTYQGKPVDPKAEFLIATNNYRAYGNKFPGTGDKHIVYASPDESRQILADYIKATSEKEGSVNPNADKNWRFVPI”, the “soluble on expression in E. coli” value is listed as “not soluble”.

Take “MKNVTRILTLSNGYHLWSHTSNLGGRTKLLCLHGGPGDTHEVFERFGPELADLDIEVTMYDQLGSWYSDTPNWDDDAIRQQYLTEDYYLSEVDEVRQQLGYKHCYLAGHSWGGMLAMTYAADHQDQLDGLIIISMIDNIADYLKRMHAIRTAEFSPAENAFMLAIEKRQQWNNPHYRQLITHLYHQYINRCHPSMMQHQLDIQAKPVYNHFQGDNEFVVYGVLDDWDFSDTLATIQVPTLLMFADHETMPLATAERMQQRMPNAKLVVTPDSGHNHMVDNPAVFFTYLRNYFSDQLGR”: the “soluble on expression in E. coli” value is “not soluble”.

Consider “MNINKSKKRDSAVDIDNHDPFSVLLMGVDERDGDKGRADSLIYMTVNPKTKTTEMVSIPRDTYTEIIGKGKMDKINHSYAFGGVQMTVDTVENFLDVPVDYFIKVNMESFKDVVDTLGGITVNSTFAFNYDGYSFGKGEITLNGKEALAYTRMRKEDPNGDFGRQNRQRQVIEGIINKGANISSITKFGDMFKVIENNVKTNLTFDDMWDIQSGYKEARSKVIQHELKGDGTKINGIYYYKADESSLSDITAELKESLNKLEHHHHHH”, for which the “soluble on expression in E. coli” value is recorded as “soluble”.

For “MGVSLSKGGNVSLTKEAPGLTAVIVGLGWDIRTTTGTDFDLDASALLLNSGGKVASDAHFIFFNNLKSPDGSVEHTGDNITGEGEGDDEQIKINLATVPADIEKIVFPVSIYDAENRQQSFGQVRNAFIRVVNQAGEAEIARYDLSEDASTETAMVFGELYRHGAEWKFRAIGQGYASGLRGIAQDFGVNV”, the “soluble on expression in E. coli” value was “soluble”.

On to “MSLQQPLAYRMRPRHLDEVVGQQHLVGPGKIIRRMVEAKMLSSMILYGPPGTGKTSIASAIAGSTNYAFRMLNAATDTKKDLQIVAEEAKMSGTVILLLDEIHRLDKTKQDFLLPHLENGRIIMIGATTENPYITINPAIRSRTQIFEVKPLTETDIQQAIQEALTDSTRGLGDYPVHLEEKALQHLTRATNGDLRSALNGLELAVKSTPKNEQGEIKITLPIIEECVQRKALTHVKDGDAHYDVISAFQKSIRGSDVDAALHYLGRLVEAGDLPIICRRLMVIAYEDIGLGNPAAAARTVTAVQAAEKLGFPEARIPLASVVIDLCLSPKSNSAVTAIDAALADIRQGSVGDVPDHLRDAHYAGAKELNRGIGYQYPHNFENGWVNQQYLPDKLKEARYYEPIDIGKYEQALHQQLKRIQEWKEGHHHHHH”, for which the “soluble on expression in E. coli” value is recorded as “soluble”.

As to “MSASFSNNACYMDVMIEIISLRLRLAIASSDRVPLWPFPSRQYMPTRPGWSRWRHPTVVVEPMRNQNFSYHKCNNKIDSSKHISTLSH”, the “soluble on expression in E. coli” value is recorded as “not soluble”.
